Key:
Assay type in all cases: biochemical, Z. mays
[1] = system: 4-hydroxyphenylpyruvate dioxygenase (HPPD); assay: HPPD activity coupled assay with HGD; substrate saturation kinetic parameters (kcat, KM)
Procedure, shortened: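 Coupled continuous assay: His-tagged HPPD (5 to 240 nM, E. coli-expressed, Ni-NTA-purified) with 50 nM P. aeruginosa HGD in 25 mM Hepes pH 7, 2 mM ascorbate, 10 μM FeSO4; maleylacetoacetate followed at 320 nm. KM and Vmax from Lineweaver-Burke fits over 3.33–100 μM HPP.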

[2] = system: 4-hydroxyphenylpyruvate dioxygenase (HPPD); assay: Estimate of kcat from initial rate at saturating hydroxyphenylpyruvate without inhibitor (ON rate ratio assay)
Procedure, shortened: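 kcat was estimated from the initial reaction rate with known enzyme level (60 or 120 nM HPPD). Hydroxyphenylpyruvate was at a saturating 100 μM, with no inhibitor present.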

[3] = system: 4-hydroxyphenylpyruvate dioxygenase (HPPD); assay: ON rate ratio: HPPD reaction rate with vs without inhibitor in the 70 to 90 second interval; conditions: for ON ratio (parameters with tembotrione): Table 5; for Insensitivity, isoxaflutole (DKN), Rate ratio ON: inhibitor diketonitrile form of isoxaflutole (DKN); for Insensitivity, mesotrione, Rate ratio ON: inhibitor mesotrione; for Insensitivity, sulcotrione, Rate ratio ON: inhibitor sulcotrione; for Insensitivity, tembotrione, Rate ratio ON: inhibitor tembotrione; for Insensitivity, topramezone, Rate ratio ON: inhibitor topramezone
Procedure, shortened: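 Indicator of inhibitor on-rate: reaction velocity in the 70 to 90 second window with 4 μM inhibitor divided by that without. Reactions contained 100 μM HPP and 60 or 120 nM HPPD; slower binding gives a larger ratio.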

[4] = Table 2, E. coli purified proteins
[5] = Table 6, single substitutions in SEQ ID NO:2
[6] = substrate saturation kinetic analysis
[7] = Table 5, single substitutions in Round 7 variant 9070 (SEQ ID NO:2), estimate from initial rate at saturating hydroxyphenylpyruvate without inhibitor
[8] = Table 7, combinatorial variants
[9] = Table 7, tembotrione, combinatorial variants

Row | Molecule | Km [1, 4] [µM] | kcat [1, 4] [s⁻¹] | Km ([1]; Table 6) [µM] | kcat [1, 5] [s⁻¹] | Km [1, 6] [µM] | kcat [1, 6] [s⁻¹] | kcat ([2]; Megatable 3, shuffled variants) [s⁻¹] | kcat [2, 7] [s⁻¹] | kcat [2, 8] [s⁻¹] | ON ratio (parameters with tembotrione) ([3]; tembotrione) | ON rate ratio [3, 9] | Insensitivity, isoxaflutole (DKN), Rate ratio ON [3] | Insensitivity, mesotrione, Rate ratio ON [3] | Insensitivity, sulcotrione, Rate ratio ON [3] | Insensitivity, tembotrione, Rate ratio ON [3] | Insensitivity, topramezone, Rate ratio ON [3] | ON rate ratio ([3]; mesotrione) | kcat ([1]; text b374) | ON rate ratio ([3]; mesotrione, listed as wild type)
1 | R7-9070: shuffled maize HPPD, Round 7, variant 9070 (SEQ ID NO:2); backbone for saturation mutagenesis (protein, Zea mays variant form created by artificial means., backbone for saturation mutagenesis) MGPTPTATAAGAAVAAASAAEQAAFRLVGHRNFVRFNPRSDRFQTLAFHHVELWCADAASAAGRFSFALGVPLAARSDLSTGNSAHASLLLRSGSLSLLFTAPYAHGADAATAALPSFSAAAARRFAADHGLAVRAVALRVADAEDAFRASVAAGARPAFGPVDLGRGFRLAEVELYGDVVLRYVSYPDGAAGEPFLPGFEGVASPGAADYGLSRFDHIVGNVPELAPAAAYMAGFTGFHEFAEFTTEDVGTTESGLNSMALANNSENVLLPLNEPVHGTKRRSQIQTFLDHHGGPGVQHIALASDDVLRTLREMRARSAMGGFEFLPPPLSDYYDGVRRCAGDVLTEAQINECQELGVMVDRDDQGVLLQIFTKPVGDRPTFFLEIIQRIGCMEKDEKGQEYQKGGCGGFGKGNFGQLFKSIEDYEKSLEAKQAAAAATAQGS | 2.9 | 1.48 | 2.35 | 0.918 | 2.91 | 1.48 | 0.667 | 0.57 | 0.667 | 0.74 | 0.744 | 0.82 | 0.66 | 0.81 | 0.80 | 0.79 | 0.67 |  | 
2 | P056028-B-02 (protein, Zea mays variant form created by artificial means.) MGPTPTATAAGAAVAAASAAEQAAFRLVGHRNFVRFNPRSDRFQTLAFHHVELWCADAASAAGRFSFALGVPLAARSDLSTGNSAHASLLLRSGSLSLLFTAPYAHGADAATAALPSFSAAAARRFAADHGLAVRAVALRVADAEDAFRASVAAGARPAFGPVDLGRGFRLAEVELYGDVVLRYVSYPDGAAGEPFLPGFEGVASSGAADYGLSRFDHIVGNVPELAPAAAYMAGFTGFHEFAEFTTEDVGTTESGLNSMALANNSENVLLPLNEPVHGTKRRSQIQTFLDHHGGPGVQHIALASDDVLRTLREMRARSAMGGFEFLPPPLSDYYDGVRRCAGDVLTEAQINECQKLGVMVDRDDEGVLLQIFTKPVGDRPTFFLEIIQRIGCMEKDEKGQEYQKGGCGGFGKGNFGQLFKSIEDYERSLEAKQAAAVATAQGS |  |  |  |  | 3 | 0.978 | 0.47 |  | 0.47 |  | 0.800 | 0.80 | 0.63 | 0.81 | 0.80 | 0.79 |  |  | 
3 | P056028-D-03 (protein, Zea mays variant form created by artificial means.) MGPTPTATAAGAAVAAASAAEQAAFRLVGHRNFVRFNPRSDRFQTLAFHHVELWCADAASAAGRFSFALGVPLAARSDLSTGNSAHASLLLRSGSLSLLFTAPYAHGADAATAALPSFSAAAARRFAADHGLAVRAVALRVADAEDAFRASVAAGARPAFGPVDLGRGFRLAEVELYGDVVMRYVSYPDGAAGEPFLPGFEGVASPGAADYGLNRFDHIVGNVPELAPAAAYMAGFTGFHEFAEFTTEDVGTTESGLNSMALANNSENVLLPLNEPVHGTKRRSQIQTFLDHHGGPGVQHIALASDDVLRTLREMRARSAMGGFEFLPPPLSDYYDGVRRCAGDVLTEAQINECQELGVMVDRDDEGVLLQIFTKPVGDRPTFFLEIIQRIGCMEKDEKGQEYQKGGCGGFGKGNFGQLFKSIEDYEKSLEAKQAAAAATAQGS |  |  |  |  | 2.08 | 0.737 | 0.327 |  | 0.327 |  | 0.770 | 0.76 | 0.68 | 0.76 | 0.77 | 0.80 |  |  | 
4 | P056028-G-01R (protein, Zea mays variant form created by artificial means.) MGPTPTATAAGAAVAAASAAEQAAFRLVGHRNFVRFNPRSDRFQTLAFHHVELWCADAASAAGRFSFALGVPLAARSDLSTGNSAHASLLLRSGSLSLLFTAPYAHGADAATAALPSFSAAAARRFAADHGLAVRAVALRVADAEDAFRASVAAGARPAFGPVDLGRGFRLAEVELYGDVVLRYVSYPDGAAGEPFLPGFEGVASPGAADLGLNRFDHIVGNVPELAPAAAYMAGFTGFHEFAEFTTEDVGTTESGLNSMALANNSENVLLPLNEPVHGTKRRSQIQTFLDHHGGPGVQHIALASDDVLRTLREMRARSAMGGFEFLPPPLSDYYDGVRKCAGDVLTEAQINECQELGVMVDRDDEGVLLQIFTKPVGDRPTFFLEIIQRIGCREKDEKGQEYQKGGCGGFGKGNFGQLFKSIEDYEKSLEKKRAAAAATAQGS |  |  |  |  | 2.02 | 1.18 | 1.18 |  | 1.18 |  | 0.719 | 0.77 | 0.73 | 0.75 | 0.72 | 0.81 |  |  | 
5 | P056028-G-01 (protein, Zea mays variant form created by artificial means.) MGPTPTATAAGAAVAAASAAEQAAFRLVGHRNFVRFNPRSDRFQTLAFHHVELWCADAASAAGRFSFALGVPLAARSDLSTGNSAHASLLLRSGSLSLLFTAPYAHGADAATAALPSFSAAAARRFAADHGLAVRAVALRVADAEDAFRASVAAGARPAFGPVDLGRGFRLAEVELYGDVVLRYVSYPDGAAGEPFLPGFEGVASPGAADLGLNRFDHIVGNVPELAPAAAYMAGFTGFHEFAEFTTEDVGTTESGLNSMALANNSENVLLPLNEPVHGTKRRSQIQTFLDHHGGPGVQHIALASDDVLRTLREMRARSAMGGFEFLPPPLSDYYDGVRKCAGDVLTEAQINECQELGVMVDRDDEGVLLQIFTKPVGDRPTFFLEIIQRIGCMEKDEKGQEYQKGGCGGFGKGNFGQLFKSIEDYEKSLEKKRAAAAATAQGS |  |  |  |  | 2.06 | 0.69 | 0.537 |  | 0.537 |  | 0.742 | 0.77 | 0.71 | 0.78 | 0.77 | 0.80 |  |  | 
6 | P056028-A-03 (protein, Zea mays variant form created by artificial means.) MGPTPTATAAGAAVAAASAAEQAAFRLVGHRNFVRFNPRSDRFQTLAFHHVELWCADAASAAGRFSFALGVPLAARSDLSTGNSAHASLLLRSGSLSLLFTAPYAHGADAATAALPSFSAAAARRFAADHGLAVRAVALRVADAEDAFRASVAAGARPAFGPVDLGRGFRLAEVELYGDVVLRYVSYPDGGAGEPFLPGFEGVASPGAADLGLSRFDHIVGNVPELAPAAAYMAGFTGFHEFAEFTTEDVGTTESGLNSMALANNSENVLLPLNEPVHGTKRRSQIQTFLDHHGGPGVQHIALASDDVLRTLREMRARSAMGGFEFLPPPLSDYYDGVRRCAGDVLTEAQINECQELGVMVDRDDEGVLLQIFTKPVGDRPTFFLEIIQRIGCMEKDEKGQEYQKGGCGGFGKGNFGQLFKSIEDYEKSLERKRAAAAATAQGS |  |  |  |  | 2.98 | 1.05 | 0.4 |  | 0.4 |  | 0.748 | 0.81 | 0.70 | 0.80 | 0.80 | 0.81 |  |  | 
7 | Z. mays wt: maize wild-type HPPD, SEQ ID NO:1 (glycine for proline at position 2) (protein, Zea mays) MGPTPTAAAAGAAVAAASAAEQAAFRLVGHRNFVRFNPRSDRFHTLAFHHVELWCADAASAAGRFSFGLGAPLAARSDLSTGNSAHASLLLRSGSLSFLFTAPYAHGADAATAALPSFSAAAARRFAADHGLAVRAVALRVADAEDAFRASVAAGARPAFGPVDLGRGFRLAEVELYGDVVLRYVSYPDGAAGEPFLPGFEGVASPGAADYGLSRFDHIVGNVPELAPAAAYFAGFTGFHEFAEFTTEDVGTAESGLNSMVLANNSENVLLPLNEPVHGTKRRSQIQTFLDHHGGPGVQHMALASDDVLRTLREMQARSAMGGFEFMAPPTSDYYDGVRRRAGDVLTEAQIKECQELGVLVDRDDQGVLLQIFTKPVGDRPTLFLEIIQRIGCMEKDEKGQEYQKGGCGGFGKGNFSQLFKSIEDYEKSLEAKQAAAAAAAQGS | 6.4 | 3.65 | 6.4 | 3.65 | 6.41 | 3.65 |  | 3.5 |  | 0.17 |  | 0.08 | 0.20 | 0.30 | 0.20 | 0.100 | 0.20 | about 220 min^−1 | 0.2

— US11015206B2, “Compositions and methods comprising sequences having hydroxyphenylpyruvate dioxygenase (HPPD) activity” (PIONEER HI-BRED INTERNATIONAL, INC., priority 2014, dated 2021)
